From US20090221680, “Aptamers that bind thrombin with high affinity” (published 2009)

Biological target: thrombin (alpha-thrombin) (Homo sapiens, UniProt P00734;P00734 P00734:315-363,P00734:364-622)
Assay: filter; DPBS Ca Mg, BSA, RT

## ACTGCCTAGGTTGGGTAGGGTGGTGGCAGT (ssDNA, PS linkage between nt 1 and 2) [ARC2644]
  Kd: 0.183 nM
